Read-outs that look alike come from different tables or passages of the source.
What was measured:
[1] = molecular target: T1, NEQ395 (Nanoarchaeum equitans, UniProt Q74N22); experiment: RP-HPLC primase assay with omission of single rNTPs; assay type: biochemical; conditions: pH 6.5, 70°C
T1 sequence (Q74N22 1-393): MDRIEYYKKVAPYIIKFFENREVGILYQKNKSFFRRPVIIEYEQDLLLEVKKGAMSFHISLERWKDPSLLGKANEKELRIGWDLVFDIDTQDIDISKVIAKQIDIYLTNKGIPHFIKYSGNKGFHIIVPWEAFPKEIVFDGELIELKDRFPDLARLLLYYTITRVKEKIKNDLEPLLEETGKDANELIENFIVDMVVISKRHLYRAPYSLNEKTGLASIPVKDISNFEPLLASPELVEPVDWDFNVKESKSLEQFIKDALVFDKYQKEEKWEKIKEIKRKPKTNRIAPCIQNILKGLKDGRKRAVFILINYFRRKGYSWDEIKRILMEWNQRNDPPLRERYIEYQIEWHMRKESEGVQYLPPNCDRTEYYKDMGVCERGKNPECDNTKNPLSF

[2] = molecular target: T2, NEQ395 DNA primase (monomeric PriS-PriL) (Nanoarchaeum equitans, UniProt Q74N22 1-393); experiment: fluorescence anisotropy
T2 sequence: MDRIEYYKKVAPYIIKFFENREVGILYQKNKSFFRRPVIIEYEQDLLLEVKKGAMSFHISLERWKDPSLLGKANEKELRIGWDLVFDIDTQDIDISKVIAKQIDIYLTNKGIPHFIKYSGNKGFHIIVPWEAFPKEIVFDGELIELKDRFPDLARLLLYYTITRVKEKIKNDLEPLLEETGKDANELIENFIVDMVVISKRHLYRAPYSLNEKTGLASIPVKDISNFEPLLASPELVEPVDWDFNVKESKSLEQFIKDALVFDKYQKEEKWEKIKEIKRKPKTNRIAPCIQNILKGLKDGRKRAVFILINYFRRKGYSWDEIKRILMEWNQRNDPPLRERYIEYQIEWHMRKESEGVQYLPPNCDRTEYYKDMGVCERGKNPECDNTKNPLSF

[3] = molecular target: T2, NEQ395 DNA primase (monomeric PriS-PriL); experiment: fluorescence anisotropy; remark: listed apart in the source
[4] = molecular target: T2, NEQ395 DNA primase (monomeric PriS-PriL); experiment: fluorescence anisotropy; remark: listed apart in the source

Molecule: Nc1ncnc2c1ncn2[C@@H]1O[C@H](COP(=O)(O)OP(=O)(O)OP(=O)(O)O)[C@@H](O)[C@H]1O [ATP]
- RP-HPLC primase assay with omission of single rNTPs ([1]; initiating nucleotide, ssDNA template Fid1-4, Mn2+): using an rNTP mix without ATP (the first cognate base needed for synthesis) did not initiate

Molecule: Nc1nc2c(ncn2[C@@H]2O[C@H](COP(=O)(O)OP(=O)(O)OP(=O)(O)O)[C@@H](O)[C@H]2O)c(=O)[nH]1 [GTP]
- RP-HPLC primase assay with omission of single rNTPs ([1]; elongating nucleotide, ssDNA template Fid2, Mn2+): In presence of GTP, extension to the full-length primers occurs.

B1: t9 (ssDNA)
DNA: CTATACTCA
- Kd [2]: 1060 nM
- Kd [3]: 580 nM

B2: t18_ds (dsDNA)
DNA 1: TGTAAAACGACGGCCAGT
DNA 2: ACTGGCCGTCGTTTTACA
- Kd [4]: 650 nM

B3: t9-ATA (lacks ATA) (ssDNA)
DNA: CTGTGCTCA
- Kd [2]: 2870 nM

B4: t18 (ssDNA)
DNA: TGTAAAACGACGGCCAGT
- Kd [4]: 510 nM

Reference: publication PMC10250227 (Nucleic Acids Research, 2023)
